Test results reported in US20240239863A1, “GIP RECEPTOR AGONIST AND USE THEREOF” (HANGZHOU ZHONGMEIHUADONG PHARMACEUTICAL CO., LTD., priority 2022, published 2024).
Non-standard residues stand in square brackets, D forms with d. No end group written: not given here. Aib = CC(C)(N)C(=O)O

T1: human GIP receptor (glucose-dependent insulinotropic peptide receptor, GIPR) (human, UniProt P48546 22-466)
T1 sequence (looked up): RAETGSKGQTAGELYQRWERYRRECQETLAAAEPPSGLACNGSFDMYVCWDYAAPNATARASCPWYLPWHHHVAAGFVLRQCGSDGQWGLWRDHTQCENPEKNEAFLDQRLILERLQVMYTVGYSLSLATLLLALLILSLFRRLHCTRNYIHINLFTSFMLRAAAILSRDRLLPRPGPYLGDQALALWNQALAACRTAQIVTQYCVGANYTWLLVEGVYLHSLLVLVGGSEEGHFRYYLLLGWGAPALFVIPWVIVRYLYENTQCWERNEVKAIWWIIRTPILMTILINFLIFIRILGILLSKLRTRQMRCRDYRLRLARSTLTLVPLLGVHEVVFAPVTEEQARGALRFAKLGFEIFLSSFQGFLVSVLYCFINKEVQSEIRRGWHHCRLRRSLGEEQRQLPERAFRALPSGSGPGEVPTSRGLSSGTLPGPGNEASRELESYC


What was measured:
[1] = target: T1, human GIP receptor (glucose-dependent …); test: cell-based or functional assay
human GLP-1 receptor = human GLP-1 receptor (human, UniProt P43220 24-463); test: cell-based or functional assay

Row | Binder | EC50(pM), cell agonistic activity (cAMP, HTRF) [1] | EC50(pM), cell agonistic activity (human GLP-1 receptor)
1 | Y[Aib]EGTFISDYSIALDRLHQQDFVKWLLAQRG (also: long-acting conjugating component, site and structure not given here) [Peptide 17 (long-acting conjugate of GIP analog, Seq ID. 17)] | 25.7 pM | > 100 pM
2 | Y[Aib]EGTFISDYSIALDK(18‑(((23R)-23-carboxyl-2,11,20-trioxo-10,19-diaza-4,7,13,16-tetraoxatricosyl-23-yl)amino)‑18‑oxooctadecanoic acid acetyl)IHQQDFVNWLLAQRG | 6.66 pM | > 100 pM
3 | Y[Aib]EGTFISDYSIALDK(18‑(((23R)-23-carboxyl-2,11,20-trioxo-10,19-diaza-4,7,13,16-tetraoxatricosyl-23-yl)amino)‑18‑oxooctadecanoic acid acetyl)LHQQDFVNWLLAQRG | 4.26 pM | > 100 pM
4 | Y[Aib]EGTFISDYSIALDRIHQQDFVNWLLAQK(18‑(((23R)-23-carboxyl-2,11,20-trioxo-10,19-diaza-4,7,13,16-tetraoxatricosyl-23-yl)amino)‑18‑oxooctadecanoic acid acetyl)G | 3.5 pM | > 100 pM
5 | Y[Aib]EGTFISDYSIALDRIHQEDFVKWLLAQRG (also: long-acting conjugating component, site and structure not given here) [Peptide 11 (long-acting conjugate of GIP analog, Seq ID. 11)] | 3.5 pM | > 100 pM
6 | Y[Aib]EGTFISDYSIALDK(18‑(((23R)-23-carboxyl-2,11,20-trioxo-10,19-diaza-4,7,13,16-tetraoxatricosyl-23-yl)amino)‑18‑oxooctadecanoic acid acetyl)IHQEDFVNWLLAQRG | 7.24 pM | > 100 pM
7 | Y[Aib]EGTFISDYSIALDRLHQEDFVNWLLAQKG (also: long-acting conjugating component, site and structure not given here) [Peptide 16 (long-acting conjugate of GIP analog, Seq ID. 16)] | 3.77 pM | > 100 pM
8 | Y[Aib]EGTFISDYSIALDRIHQQDFVKWLLAQRG (also: long-acting conjugating component, site and structure not given here) [Peptide 13 (long-acting conjugate of GIP analog, Seq ID. 13)] | 5.61 pM | > 100 pM
9 | Y[Aib]EGTFISDYSIALDK(18‑(((23R)-23-carboxyl-2,11,20-trioxo-10,19-diaza-4,7,13,16-tetraoxatricosyl-23-yl)amino)‑18‑oxooctadecanoic acid acetyl)LHQEDFVNWLLAQRG | 6.82 pM | > 100 pM
10 | Y[Aib]EGTFISDYSIALDRIHQEDFVNWLLAQKG (also: long-acting conjugating component, site and structure not given here) [Peptide 12 (long-acting conjugate of GIP analog, Seq ID. 12)] | 5.14 pM | > 100 pM
11 | Y[Aib]EGTFISDYSIALDRLHQEDFVKWLLAQRG (also: long-acting conjugating component, site and structure not given here) [Peptide 15 (long-acting conjugate of GIP analog, Seq ID. 15)] | 9.14 pM | > 100 pM
